Among the data in US20260232829A1 (CYTOSPIRE THERAPEUTICS, published 2026) are Kd values, retold here.

First the molecules themselves.
B2: Human his-tagged NKG2D/CD314 (Acro Biosystems, NKD-H5245) (receptor, UniProt P26718 78-216, looked up)
chain: FLNSLFNQEVQIPLTESYCGPCPKNWICYKNNCYQFFDESKNWYESQASCMSQNASLLKVYSKEDQDLLKLVKSYHWMGLVHIPTNGSWQWEDGSILSPNLLTIIEMQKGDCALYASSFKGYIENCSTPNTYICMQRTV
notes: Bought recombinant protein with a His tag; also called Human NKG2D-His protein; NKG2D-His

Experiment [1] has as its target T1, CYTB29.
T1 construct: Comparator, Format G: three chains, monovalent for NKG2D (H5/L5) and IL-15 receptor beta; wild-type IL-15
Briefly: SPR avidity format, antigen immobilised on CM5 chip, test molecule injected as analyte. From the text: (§1) In order explore avidity binding effects (rather than affinity), a different assay orientation was employed. Specifically, the recombinant target human antigens (NKG2D-His or IL-15 receptor beta-His antigens, see Example 5) were immobilized on CM5 Series S sensor chips (Cytiva, catalogue number 29149603). […] Irrelevant mAbs were employed to determine and subtract background. As previously (Example 5), standard regeneration solutions and buffers were employed. To determine and compare avidity effects, test molecules were the injected in stepwise serial dilutions and sensogram responses generated.

Experiment [2] concerns the target T1, CYTB29. Briefly: SPR (Biacore), molecule captured on anti-human IgG Fc chip, antigen as analyte, 1:1 Langmuir fit. The method, then: (§2) In brief, the test molecules were first immobilized on a goat anti-human IgG (Fc specific) antibody plated on a Biacore CM5 Series S sensor chip (CFJB1172, Cytiva Cat No. 29149603) by injection at 5 nM at flow rate 30 ul/min. […] The quality of the fits was assessed by visual inspection.
Background: SPR reads the build-up and loss of mass on a sensor chip optically.

For experiment [3], the target named is T2, CYTB04.
T2 construct: Immunocytokine, Format A: anti-NKG2D IgG1 (H5/L5) with sushi-IL-15 at the C-terminus of each heavy chain
The description is as above. The method, then: as §2

The target of experiment [4] is T3, CYTB30.
T3 construct: Comparator, Format G: three chains, monovalent for both targets; also called CYB30
Put plainly: SPR avidity format, antigen immobilised on CM5 chip, test molecule injected as analyte; avidity format of Table 6 (Example 6); not the capture format of Table 5.
Description: as §1

In experiment [5] the target is B2. Put plainly: SPR (Biacore), molecule captured on anti-human IgG Fc chip, antigen as analyte, 1:1 Langmuir fit. The method, then: as §2

B1: Human IL-15R beta/CD122 Protein, His Tag (Acro Biosystems CD2-H5221) (receptor, UniProt P14784 27-239, looked up)
chain: AVNGTSQFTCFYNSRANISCVWSQDGALQDTSCQVHAWPDRRRWNQTCELLPVSQASWACNLILGAPDSQKLTTVDIVTLRVLCREGVRWRVMAIQDFKPFENLRLMAPISLQVVHVETHRCNISWEISQASHYFERHLEFEARTLSPGHTWEEAPLLTLKQKQEWICLETLTPDTQYEFQVRVKPLQGEFTTWSPWSQPLAFRTKPAALGKD
notes: Bought recombinant protein with a His tag; also called Human IL-15Rβ protein; IL-15 receptor beta-His
For the molecule B1, the Kd in experiment [1] was 6.4 nM; in experiment [2], 3.52 nM; in experiment [3] it was 6 nM.
Regarding B2, the Kd in experiment [1] worked out at 4.8 nM; in experiment [4], 3830 nM; in experiment [2], 1.92 nM; in experiment [3] it was 1.25 nM.

B3: CYTB21 (antibody, human IgG1, kappa, V domains shown)
VH: EVQLVQSGAEVKEPGESLKISCKNSGYSFTNYWVGWVRQMPGKGLEWMGIIYPGDSDTRYSPSFQGQVTISADKSINTAYLQWSSLKASDTAMYYCGRLTMFRGIIIGYFDYWGQGTLVTVSS
VL: EIVLTQSPATLSLSPGERATLSCRASQSVSSYLAWYQQKPGQAPRLLIYDASNRATGIPARFSGSGSGTDFTLTISSLEPEDFAVYYCQQRSNWPWTFGQGTKVEIKR
notes: Control, Format E: anti-NKG2D IgG1 (H6/L6) without IL-15 components; also called CYB21; anti-NKG2D IgG1
For the molecule B3, the Kd in experiment [5] turned out to be 1.65 nM.
